Experimental data as given in patent publication US20190216897A1.

Target: IL-18 (human) (UniProt Q14116)
Test: cell-based or functional assay

B1: neutralizing anti-IL-18 mAb (125-2H; MLB) (antibody, from another filing, V domains shown)
VH: EIQLQQSGPELVKPGASVKVSCKASGYSFTDYFIYWVKQSHGKSLEWIGDIDPYNGDTSYNQKFRDKATLTVDQSSTTAFMHLNSLTSEDSAVYFCARGLRFWGQGTLVTVSA
VL: DIQMTQSPSSLSASLGERVSLTCRASQDIGSKLYWLQQEPDGTFKRLIYATSSLDSGVPKRFSGSRSGSDYSLTISSLESEDFVDYYCLQYASSPYTFGGGTKLAIKR
Question: How did the decrease in proliferation of CD8+ T cells primed with CD5+ DCs (CFSE dilution) turn out when B1 was run?
Answer: 40%
